{"source": "paper PMC9569640", "about": "(2022)", "experiment_in_all_cases": "fluorescence polarization", "key": {"CagA EPIYA-D 13-mer": {"molecular_target": "CagA EPIYA-D 13-mer (Helicobacter pylori)"}, "CagA EPIYA-B 13-mer": {"molecular_target": "T1, CagA EPIYA-B 13-mer (Helicobacter pylori)", "T1 chain": "{FAM}-PEEPI[pY]AQVAKKV"}, "CagA EPIYA-CD 8-mer": {"molecular_target": "T2, CagA EPIYA-CD 8-mer (Helicobacter pylori)", "T2 chain": "{FAM}-EPI[pY]ATID"}, "CagA EPIYA-A 13-mer": {"molecular_target": "CagA EPIYA-A 13-mer (Helicobacter pylori)"}, "CagA EPIYA-C 13-mer": {"molecular_target": "T3, CagA EPIYA-C 13-mer (Helicobacter pylori)", "T3 chain": "{FAM}-SPEPI[pY]ATIDDLG"}}, "note": "Square brackets hold non-standard residues; d marks the D form. Ends that are not written are not given here. FAM = FAM, a fluorescent label attached at the N-terminus of the peptide; pY = N[C@@H](Cc1ccc(OP(=O)(O)O)cc1)C(=O)O"}
{"binder": "SHIP2 SH2 (protein) APSWYHRDLSRAAAEELLARAGRDGSFLVRDSESVAGAFALCVLYQKHVHTYRILPDGEDFLAVQTSQGVPVRRFQTLGELIGLYAQPNQGLVCALLLPVEGE", "values": [{"measurement": "Kd", "setting": "CagA EPIYA-D 13-mer", "result": 3.16, "unit": "µM"}, {"measurement": "Kd", "setting": "CagA EPIYA-B 13-mer", "result": 18.6, "unit": "µM"}, {"measurement": "Kd", "setting": "CagA EPIYA-CD 8-mer", "result": 4.45, "unit": "µM"}, {"measurement": "Kd", "setting": "CagA EPIYA-A 13-mer", "result": 23.4, "unit": "µM"}, {"measurement": "Kd", "setting": "CagA EPIYA-C 13-mer", "result": 2.96, "unit": "µM"}]}
